Data set [1] is described as follows: MALDI-TOF mass spectrum of native and microneedle-released insulin/glucagon. The conditions noted are these: throughout the polymerization process. The class given is physicochemical.
For data set [2] the following is noted: physiological pH.

Turning to “insulin: Human recombinant insulin purchased from Thermo Fisher Scientific”, the “integrity of protein released from microneedles” value in data set [1] is reported as “stayed intact”. Further, the solubility result in data set [2] is listed as “high solubility”.
